Like-named read-outs stand apart in the source and are kept apart here.

For data set [1] the following is noted: mouse; expected from published studies and own work; cited from earlier work.
Data set [2] in a line: Expected pharmacokinetics of soluble and/or released interferon α in the mouse. The settings on record: for a 20 g mouse. The class given is in vivo. Here is the method:
Animal Study. […] Mice used for this study were Balb/c transgenic for the human Interferon α2b gene (Braun et al. 1997, Palleroni et al. 1997). Three mice were used for each formulation. As a, control, one set of mice was injected with 50 μg of soluble human IFN-α001. […] Thus, for a 20 g mouse, the volume of distribution should be ˜8 ml. At 24 hours after administration, given a half-life of 1 hr, we would predict that the serum concentration remaining from a 50 μg dose would be ˜1 pg/ml. In practice, all of the sera of this group of mice were below the detection limit of the ELISA of 40 pg/ml. To test our formulation strategy, we produced 5 different interferon formulations. Human IFN-α2b, human IFN-α001, human IFN-α012, and murine IFN-α formulations were allowed to mature for 18 hr. A fifth formulation contained human IFN-α001 and matured for 3 hours prior to centrifugation. The human IFN-α formulations were produced at 0.4 mg/ml protein with 25 mM NaOAc pH 5.4, 6 mM Tris pH 8.0, 50 mM NaCl, 1.25% glycerol, with particle formation intitiated by addition of N-propanol to 16%. […] Serum was collected at 24 hours post injection, mice in all groups recieving a human interferon had immunoreactive interferon in their serum as determined by ELISA (PBL Multispecies ELISA # 41105). […] No interferon was detected at the 96 hours or 168 hours time points.

With interferon α, the volume of distribution entry in data set [1] is “about 0.4 ml/g”; in data set [2] it was roughly 8 mL.

Source of the values: patent publication US20030017169A1, “Controlled release systems for polymers” (priority 2000, published 2003).
